One may read the Kd as the free concentration of one partner at which half of the binding sites on the other are occupied at equilibrium, for simple one-to-one binding. Low readings indicate a tighter complex, high ones a looser complex.

This assay addresses taxol-stabilized microtubules (porcine brain tubulin) (porcine) (UniProt P02550). Kind of assay: TIRF microscopy.
Sequence of UniProt P02550 (P02550 whole entry): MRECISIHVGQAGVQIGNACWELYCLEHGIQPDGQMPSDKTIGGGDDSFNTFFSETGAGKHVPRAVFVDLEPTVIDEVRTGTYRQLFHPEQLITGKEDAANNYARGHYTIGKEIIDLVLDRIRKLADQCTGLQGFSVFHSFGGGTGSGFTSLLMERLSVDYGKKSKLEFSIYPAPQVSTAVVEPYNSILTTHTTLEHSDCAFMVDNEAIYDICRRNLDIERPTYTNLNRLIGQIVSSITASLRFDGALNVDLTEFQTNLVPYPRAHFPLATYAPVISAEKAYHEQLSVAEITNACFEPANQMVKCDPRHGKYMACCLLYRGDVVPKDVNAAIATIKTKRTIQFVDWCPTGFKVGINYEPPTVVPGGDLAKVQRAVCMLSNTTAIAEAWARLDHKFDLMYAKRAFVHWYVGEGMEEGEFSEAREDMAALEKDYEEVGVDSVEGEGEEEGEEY
Consider “sfGFP-DCLK1-T687/688A co-expressed with lambda phosphatase, without ATP (from UniProt O15075 1-740) (natural protein)”, for which the equilibrium dissociation constant (Kd) was found to be 9.4 nM.
As for “sfGFP-DCLK1-T687A co-expressed with lambda phosphatase, without ATP (from UniProt O15075 1-740) (natural protein)”, the Kd was determined as 2.4 nM.
The substance “sfGFP-DCLK1-T688A co-expressed with lambda phosphatase, without ATP (from UniProt O15075 1-740) (natural protein)” yielded a Kd of 2.4 nM.
“sfGFP-DCLK1-ΔC (aa 1-648) treated with lambda phosphatase after purification (from UniProt O15075 1-648) (domain or fragment)” registered a microtubule-bound fluorescence intensity at 3 nM of 11800 and a microtubule-bound fluorescence intensity at 25 nM of 21600.
The corresponding values for “sfGFP-DCLK1-D511N (kinase dead), expressed in bacteria under standard conditions (from UniProt O15075 1-740) (natural protein)” are 7140 and 19600.
The matching figures for “sfGFP-DCLK1-WT treated with lambda phosphatase after purification (from UniProt O15075 1-740) (natural protein)”: 15900 and 18200.
“sfGFP-DCLK1-WT co-expressed with lambda phosphatase, without ATP (from UniProt O15075 1-740) (natural protein)” returned a Kd of 2.9 nM, a microtubule-bound fluorescence intensity at 3 nM of 14900, a microtubule-bound fluorescence intensity at 12 nM of 20600 and a microtubule-bound fluorescence intensity at 48 nM of 15900.
“sfGFP-DCLK1-ΔC4A co-expressed with lambda phosphatase, without ATP (from UniProt O15075 1-648) (domain or fragment)” registered a microtubule-bound fluorescence intensity at 3 nM of 745, a microtubule-bound fluorescence intensity at 12 nM of 2550 and a microtubule-bound fluorescence intensity at 48 nM of 4530.
The substance “sfGFP-DCLK1-ΔC (aa 1-648) co-expressed with lambda phosphatase, without ATP (from UniProt O15075 1-648) (domain or fragment)” showed a Kd of 3.9 nM, a microtubule-bound fluorescence intensity at 3 nM of 6790, a microtubule-bound fluorescence intensity at 12 nM of 9840 and a microtubule-bound fluorescence intensity at 48 nM of 14800.
Take “sfGFP-DCLK1-WT, expressed in bacteria under standard conditions (from UniProt O15075 1-740) (natural protein)”: the microtubule-bound fluorescence intensity at 3 nM worked out at 2560 and the microtubule-bound fluorescence intensity at 25 nM worked out at 16500.

Source of the values: publication doi:10.1101/2020.06.12.149252.
